In patent US20230295348A1 (NOVIMMUNE, published 2023):

T1: human recombinant IL-2Rβ (human, UniProt P14784 27-239, limits assumed)
T1 construct: Biotinylated and captured on streptavidin plates in the ELISA; also called IL-2Rb; IL2Rb
T1 sequence (looked up): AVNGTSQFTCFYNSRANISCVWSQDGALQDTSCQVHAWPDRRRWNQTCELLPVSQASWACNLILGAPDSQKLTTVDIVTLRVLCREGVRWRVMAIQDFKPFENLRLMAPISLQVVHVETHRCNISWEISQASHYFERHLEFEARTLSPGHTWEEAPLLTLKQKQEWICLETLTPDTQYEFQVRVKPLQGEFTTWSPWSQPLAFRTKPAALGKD

T2: human recombinant IL-2Rγ (human, UniProt P31785 23-262, limits assumed)
T2 construct: Biotinylated and captured on streptavidin plates in the ELISA; also called IL-2Rg; IL2Rg
T2 sequence (looked up): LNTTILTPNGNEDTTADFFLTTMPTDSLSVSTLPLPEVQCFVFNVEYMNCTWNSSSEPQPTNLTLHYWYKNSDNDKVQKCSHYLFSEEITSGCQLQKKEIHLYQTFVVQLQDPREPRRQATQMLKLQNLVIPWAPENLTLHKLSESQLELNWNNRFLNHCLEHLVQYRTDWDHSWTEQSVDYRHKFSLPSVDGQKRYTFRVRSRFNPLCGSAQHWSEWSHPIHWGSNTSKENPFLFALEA

B1: AL4O30 (bispecific antibody, human IgG1, kappa, lambda, L234A L235A)
heavy: not shown
light 1: DIQMTQSPSSLSASVGDRVTITCRASQSIDEYLNWYQQKPGKAPKLLIYEASKLQSGVPSRFSGSGSGTDFTLTISSLQPEDFATYYCQQDGAMDTYATFGQGTKVEIKRTVAAPSVFIFPPSDEQLKSGTASVVCLLNNFYPREAKVQWKVDNALQSGNSQESVTEQDSKDSTYSLSSTLTLSKADYEKHKVYACEVTHQGLSSPVTKSFNRGEC
light 2: not shown
notes: κλ-body: common heavy chain, kappa anti-IL2Rβ light chain (AL4), lambda anti-MSLN light chain (O30); also called AL4O30/N
B2: AL4O35 (bispecific antibody, human IgG1, kappa, lambda, L234A L235A)
heavy: not shown
light 1: B1 light 1
light 2: QPVLTQPVSLSASPGASVSLTCTLRSDIRVRDYRIFWYQQKPGSPPQYLLRYKTDSDKQQGSGVPSRFSGSKDASANAGILLISGLQSEDEADYYCMIWHRTTGTSLVFGGGTKLTVLGQPKAAPSVTLFPPSSEELQANKATLVCLISDFYPGAVTVAWKADSSPVKAGVETTTPSKQSNNKYAASSYLSLTPEQWKSHRSYSCQVTHEGSTVEKTVAPTECS
notes: κλ-body: common heavy chain, kappa anti-IL2Rβ light chain (AL4), lambda anti-MSLN light chain (O35); also called AL4O35/N
B3: AM5O38 (bispecific antibody, human IgG1, kappa, lambda, L234A L235A)
heavy: not shown
light 1: not shown
light 2: QPVLTQPASLSASPGASASLTCTLRSGINVRDYRIFWYQQKPGSPPQYLLRYKSASDKQQGSGVPSRFSGSKDASANAGILLISGLQSEDEADYYCMIWHHDSEGHAFVFGGGTKLTVLGQPKAAPSVTLFPPSSEELQANKATLVCLISDFYPGAVTVAWKADSSPVKAGVETTTPSKQSNNKYAASSYLSLTPEQWKSHRSYSCQVTHEGSTVEKTVAPTECS
notes: κλ-body: common heavy chain, kappa anti-IL2Rγ light chain (AM5), lambda anti-MSLN light chain (O38); also called AM5O38/N
B4: AM1N2-19 (bispecific antibody, human IgG1, kappa, lambda, L234A L235A)
heavy: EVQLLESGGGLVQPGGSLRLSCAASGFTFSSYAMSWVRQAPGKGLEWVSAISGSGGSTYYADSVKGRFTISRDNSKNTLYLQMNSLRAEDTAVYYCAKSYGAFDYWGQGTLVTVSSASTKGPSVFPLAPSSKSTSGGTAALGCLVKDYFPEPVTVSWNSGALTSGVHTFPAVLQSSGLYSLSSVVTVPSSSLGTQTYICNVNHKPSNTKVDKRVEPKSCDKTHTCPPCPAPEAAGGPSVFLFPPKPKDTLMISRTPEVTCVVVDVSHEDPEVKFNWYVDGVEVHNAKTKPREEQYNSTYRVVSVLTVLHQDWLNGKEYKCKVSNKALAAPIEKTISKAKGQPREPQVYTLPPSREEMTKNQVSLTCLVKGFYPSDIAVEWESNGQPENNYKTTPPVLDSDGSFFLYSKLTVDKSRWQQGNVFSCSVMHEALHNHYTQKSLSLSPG
light 1: DIQMTQSPSSLSASVGDRVTITCRASQSIYYYLNWYQQKPGKAPKLLIYDASALQSGVPSRFSGSGSGTDFTLTISSLQPEDFATYYCQQIDFTAGSITFGQGTKVEIKRTVAAPSVFIFPPSDEQLKSGTASVVCLLNNFYPREAKVQWKVDNALQSGNSQESVTEQDSKDSTYSLSSTLTLSKADYEKHKVYACEVTHQGLSSPVTKSFNRGEC
light 2: QSVLTQPPSVSGAPGQRVTISCTGSSSNIENTHTVHWYQQLPGTAPKLLIYDASIRPSGVPDRFSGSKSGTSASLAITGLQAEDEADYYCQSYDWLRGAQVFGGGTKLTVLGQPKAAPSVTLFPPSSEELQANKATLVCLISDFYPGAVTVAWKADSSPVKAGVETTTPSKQSNNKYAASSYLSLTPEQWKSHRSYSCQVTHEGSTVEKTVAPTECS
notes: κλ-body: common heavy chain, kappa anti-IL2Rγ light chain (AM1), lambda anti-HER2 light chain (N2-19); also called AM1N2-19/N
B5: AM6N2-19 (bispecific antibody, human IgG1, kappa, lambda, L234A L235A)
heavy: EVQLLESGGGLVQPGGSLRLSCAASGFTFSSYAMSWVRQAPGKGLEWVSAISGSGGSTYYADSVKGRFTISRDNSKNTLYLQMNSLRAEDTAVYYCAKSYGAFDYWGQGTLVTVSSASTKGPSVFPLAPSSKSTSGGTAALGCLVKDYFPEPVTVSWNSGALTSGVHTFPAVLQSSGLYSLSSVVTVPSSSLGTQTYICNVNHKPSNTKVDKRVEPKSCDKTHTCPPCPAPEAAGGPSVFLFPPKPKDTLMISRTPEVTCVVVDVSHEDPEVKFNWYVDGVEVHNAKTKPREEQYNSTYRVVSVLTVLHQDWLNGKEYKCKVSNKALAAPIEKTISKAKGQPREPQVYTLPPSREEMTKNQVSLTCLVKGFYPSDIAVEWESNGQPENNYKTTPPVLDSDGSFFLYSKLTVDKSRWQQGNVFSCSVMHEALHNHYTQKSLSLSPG
light 1: not shown
light 2: B4 light 2
notes: κλ-body: common heavy chain, kappa anti-IL2Rγ light chain (AM6), lambda anti-HER2 light chain (N2-19); also called AM6N2-19/N
B6: AM5N2-19 (bispecific antibody, human IgG1, kappa, lambda, L234A L235A)
heavy: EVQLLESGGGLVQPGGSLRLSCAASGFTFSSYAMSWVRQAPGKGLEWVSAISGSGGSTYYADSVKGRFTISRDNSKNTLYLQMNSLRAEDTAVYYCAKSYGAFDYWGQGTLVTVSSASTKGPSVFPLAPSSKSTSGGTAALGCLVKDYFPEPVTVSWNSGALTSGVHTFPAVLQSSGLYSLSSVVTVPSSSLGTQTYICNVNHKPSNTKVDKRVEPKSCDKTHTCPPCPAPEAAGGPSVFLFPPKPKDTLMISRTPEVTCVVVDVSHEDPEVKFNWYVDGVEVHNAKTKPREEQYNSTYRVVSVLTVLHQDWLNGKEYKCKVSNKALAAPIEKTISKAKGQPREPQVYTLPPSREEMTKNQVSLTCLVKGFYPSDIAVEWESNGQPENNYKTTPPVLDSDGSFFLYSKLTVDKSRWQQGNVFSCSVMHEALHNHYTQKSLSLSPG
light 1: not shown
light 2: B4 light 2
notes: κλ-body: common heavy chain, kappa anti-IL2Rγ light chain (AM5), lambda anti-HER2 light chain (N2-19); also called AM5N2-19/N
B7: AM7N2-19 (bispecific antibody, human IgG1, kappa, lambda, L234A L235A)
heavy: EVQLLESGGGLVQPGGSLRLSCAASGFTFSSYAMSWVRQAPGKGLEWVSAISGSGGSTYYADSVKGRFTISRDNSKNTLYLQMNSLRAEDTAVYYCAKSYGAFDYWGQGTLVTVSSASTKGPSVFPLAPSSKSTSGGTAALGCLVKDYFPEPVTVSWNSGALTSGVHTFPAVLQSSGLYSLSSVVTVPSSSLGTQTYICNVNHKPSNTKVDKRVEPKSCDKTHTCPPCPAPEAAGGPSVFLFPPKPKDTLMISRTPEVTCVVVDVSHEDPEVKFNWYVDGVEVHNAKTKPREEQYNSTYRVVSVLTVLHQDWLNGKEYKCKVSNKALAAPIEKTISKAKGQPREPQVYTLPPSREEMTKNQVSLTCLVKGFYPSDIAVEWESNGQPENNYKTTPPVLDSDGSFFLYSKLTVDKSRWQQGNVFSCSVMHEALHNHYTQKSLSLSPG
light 1: DIQLTQSPSFLSASVGDRVTITCRASQDIGIELAWYQQKPGKAPKLLIYFESHLQSGVPSRFSGSGSGTEFTLTISSLQPEDFATYYCQQIRIDPTFGQGTKVEIKRTVAAPSVFIFPPSDEQLKSGTASVVCLLNNFYPREAKVQWKVDNALQSGNSQESVTEQDSKDSTYSLSSTLTLSKADYEKHKVYACEVTHQGLSSPVTKSFNRGEC
light 2: B4 light 2
notes: κλ-body: common heavy chain, kappa anti-IL2Rγ light chain (AM7), lambda anti-HER2 light chain (N2-19); also called AM7N2-19/N
B8: AM4N2-19 (bispecific antibody, human IgG1, kappa, lambda, L234A L235A)
heavy: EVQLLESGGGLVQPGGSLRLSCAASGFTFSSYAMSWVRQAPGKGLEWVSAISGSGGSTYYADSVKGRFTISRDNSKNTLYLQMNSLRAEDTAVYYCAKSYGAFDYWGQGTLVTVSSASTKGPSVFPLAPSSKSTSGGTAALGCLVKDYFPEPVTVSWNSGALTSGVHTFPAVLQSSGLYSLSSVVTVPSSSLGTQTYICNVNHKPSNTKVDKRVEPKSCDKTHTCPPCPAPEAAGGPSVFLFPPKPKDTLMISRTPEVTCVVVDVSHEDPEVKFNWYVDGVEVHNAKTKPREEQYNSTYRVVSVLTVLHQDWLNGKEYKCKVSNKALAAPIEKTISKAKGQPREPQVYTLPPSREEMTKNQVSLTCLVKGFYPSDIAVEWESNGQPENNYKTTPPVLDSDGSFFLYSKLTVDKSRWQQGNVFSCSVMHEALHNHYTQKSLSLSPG
light 1: DIQMTQSPSTLSASVGDRVTITCRASQTIYGPLNWYQQKPGKAPKLLIYSTSYLESGVPSRFSGSGSGTEFTLTISSLQPDDFATYYCQQAGYASAPTFGQGTKVEIKRTVAAPSVFIFPPSDEQLKSGTASVVCLLNNFYPREAKVQWKVDNALQSGNSQESVTEQDSKDSTYSLSSTLTLSKADYEKHKVYACEVTHQGLSSPVTKSFNRGEC
light 2: B4 light 2
notes: κλ-body: common heavy chain, kappa anti-IL2Rγ light chain (AM4), lambda anti-HER2 light chain (N2-19); also called AM4N2-19/N
B9: AM11N2-19 (bispecific antibody, human IgG1, kappa, lambda, L234A L235A)
heavy: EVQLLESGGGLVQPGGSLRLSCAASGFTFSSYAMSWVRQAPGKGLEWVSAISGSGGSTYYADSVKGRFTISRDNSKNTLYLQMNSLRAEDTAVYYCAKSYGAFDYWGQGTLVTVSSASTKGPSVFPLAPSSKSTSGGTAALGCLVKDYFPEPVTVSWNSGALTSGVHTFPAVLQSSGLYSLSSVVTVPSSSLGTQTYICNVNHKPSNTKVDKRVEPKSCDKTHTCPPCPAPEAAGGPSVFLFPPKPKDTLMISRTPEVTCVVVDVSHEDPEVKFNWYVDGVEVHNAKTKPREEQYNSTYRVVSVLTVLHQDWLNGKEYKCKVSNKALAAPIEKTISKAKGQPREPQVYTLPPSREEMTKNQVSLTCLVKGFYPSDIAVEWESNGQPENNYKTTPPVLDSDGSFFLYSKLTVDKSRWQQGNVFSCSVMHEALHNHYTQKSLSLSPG
light 1: EIVLTQSPGTLSLSPGERATLSCRASQNVNHNFLTWYQQKPGQAPRLLIYSASARATGIPDRFSGSGSGTDFTLTISRLEPEDFAVYYCQQFNYAPLTFGQGTKVEIKRTVAAPSVFIFPPSDEQLKSGTASVVCLLNNFYPREAKVQWKVDNALQSGNSQESVTEQDSKDSTYSLSSTLTLSKADYEKHKVYACEVTHQGLSSPVTKSFNRGEC
light 2: B4 light 2
notes: κλ-body: common heavy chain, kappa anti-IL2Rγ light chain (AM11), lambda anti-HER2 light chain (N2-19); also called AM11N2-19/N
B10: AM9N2-19 (bispecific antibody, human IgG1, kappa, lambda, L234A L235A)
heavy: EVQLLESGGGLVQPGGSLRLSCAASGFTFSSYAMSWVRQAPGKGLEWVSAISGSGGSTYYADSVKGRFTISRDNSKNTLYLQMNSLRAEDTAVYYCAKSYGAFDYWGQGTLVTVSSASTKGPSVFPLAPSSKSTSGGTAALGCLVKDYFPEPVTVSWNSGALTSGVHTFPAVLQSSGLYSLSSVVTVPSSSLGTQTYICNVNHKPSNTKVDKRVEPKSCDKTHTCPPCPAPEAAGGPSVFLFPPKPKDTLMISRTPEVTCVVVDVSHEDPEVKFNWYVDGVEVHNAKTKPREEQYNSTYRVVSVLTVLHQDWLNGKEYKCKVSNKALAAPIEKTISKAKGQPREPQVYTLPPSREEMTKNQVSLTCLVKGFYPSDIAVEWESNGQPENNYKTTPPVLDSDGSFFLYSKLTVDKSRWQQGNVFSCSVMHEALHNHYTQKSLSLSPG
light 1: not shown
light 2: B4 light 2
notes: κλ-body: common heavy chain, kappa anti-IL2Rγ light chain (AM9), lambda anti-HER2 light chain (N2-19); also called AM9N2-19/N
B11: AM3N2-19 (bispecific antibody, human IgG1, kappa, lambda, L234A L235A)
heavy: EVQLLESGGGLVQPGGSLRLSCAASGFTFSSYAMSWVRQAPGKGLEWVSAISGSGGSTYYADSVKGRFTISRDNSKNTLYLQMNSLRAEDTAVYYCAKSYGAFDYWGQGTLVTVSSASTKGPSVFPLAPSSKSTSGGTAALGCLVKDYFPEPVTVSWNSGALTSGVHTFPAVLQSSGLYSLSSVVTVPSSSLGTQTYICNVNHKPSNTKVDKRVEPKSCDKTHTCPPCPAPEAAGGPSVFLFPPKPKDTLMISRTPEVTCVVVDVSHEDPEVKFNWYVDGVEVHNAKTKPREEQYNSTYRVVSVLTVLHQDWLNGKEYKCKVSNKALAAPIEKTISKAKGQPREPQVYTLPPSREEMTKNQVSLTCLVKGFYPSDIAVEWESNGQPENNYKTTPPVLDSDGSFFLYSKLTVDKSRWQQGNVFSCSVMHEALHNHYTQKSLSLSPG
light 1: DIQMTQSPSTLSASVGDTVTITCRASHYITTWLAWYQQKPGKAPKLLIYDVSSLESGVPSRFRGRGSGTEFTLTISSLQPDDFATYYCQQYESYSPTFGQGTKVEIKRTVAAPSVFIFPPSDEQLKSGTASVVCLLNNFYPREAKVQWKVDNALQSGNSQESVTEQDSKDSTYSLSSTLTLSKADYEKHKVYACEVTHQGLSSPVTKSFNRGEC
light 2: B4 light 2
notes: κλ-body: common heavy chain, kappa anti-IL2Rγ light chain (AM3), lambda anti-HER2 light chain (N2-19); also called AM3N2-19/N
B12: AM8N2-19 (bispecific antibody, human IgG1, kappa, lambda, L234A L235A)
heavy: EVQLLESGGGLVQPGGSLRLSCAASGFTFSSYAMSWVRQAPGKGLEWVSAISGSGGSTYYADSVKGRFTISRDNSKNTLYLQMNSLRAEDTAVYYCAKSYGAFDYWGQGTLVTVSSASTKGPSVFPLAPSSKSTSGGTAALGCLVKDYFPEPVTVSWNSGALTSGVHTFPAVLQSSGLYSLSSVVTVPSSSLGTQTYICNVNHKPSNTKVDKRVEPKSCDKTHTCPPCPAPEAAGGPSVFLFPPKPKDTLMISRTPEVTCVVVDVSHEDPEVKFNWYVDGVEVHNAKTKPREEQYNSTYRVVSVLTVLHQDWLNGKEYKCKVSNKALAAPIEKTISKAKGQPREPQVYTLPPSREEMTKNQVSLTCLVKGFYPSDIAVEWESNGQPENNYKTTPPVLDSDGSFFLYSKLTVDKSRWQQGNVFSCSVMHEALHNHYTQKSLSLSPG
light 1: EIVLTQSPGTLSLSPGERATLSCRASQDVATRGLAWYQQKPGQAPRLLIYGASSRATGIPDRFSGSGSGTDFTLTISRLEPEDFAVYYCQQYELEHPATFGQGTKVEIKRTVAAPSVFIFPPSDEQLKSGTASVVCLLNNFYPREAKVQWKVDNALQSGNSQESVTEQDSKDSTYSLSSTLTLSKADYEKHKVYACEVTHQGLSSPVTKSFNRGEC
light 2: B4 light 2
notes: κλ-body: common heavy chain, kappa anti-IL2Rγ light chain (AM8), lambda anti-HER2 light chain (N2-19); also called AM8N2-19/N
B13: AM2N2-19 (bispecific antibody, human IgG1, kappa, lambda, L234A L235A)
heavy: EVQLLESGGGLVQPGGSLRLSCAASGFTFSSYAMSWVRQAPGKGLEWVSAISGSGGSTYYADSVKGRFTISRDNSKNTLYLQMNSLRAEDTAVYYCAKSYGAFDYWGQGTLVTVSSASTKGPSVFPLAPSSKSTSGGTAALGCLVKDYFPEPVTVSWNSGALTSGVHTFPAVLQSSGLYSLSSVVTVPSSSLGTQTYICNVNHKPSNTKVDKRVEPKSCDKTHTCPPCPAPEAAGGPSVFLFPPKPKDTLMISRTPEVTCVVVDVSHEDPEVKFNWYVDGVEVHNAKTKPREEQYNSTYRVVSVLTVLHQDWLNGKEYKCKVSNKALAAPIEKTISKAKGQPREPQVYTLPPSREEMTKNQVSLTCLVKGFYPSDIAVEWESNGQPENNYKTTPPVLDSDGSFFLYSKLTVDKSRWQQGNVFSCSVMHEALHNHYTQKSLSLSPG
light 1: DIQLTQSPSFLSASVGDRVTITCRASQTIDAPLRWYQQKPGKAPKLLIYLTSSLQSGVPSRFSGSGSGTEFTLTISSLQPEDFATYYCQQGYAAGPSTFGQGTKVEIKRTVAAPSVFIFPPSDEQLKSGTASVVCLLNNFYPREAKVQWKVDNALQSGNSQESVTEQDSKDSTYSLSSTLTLSKADYEKHKVYACEVTHQGLSSPVTKSFNRGEC
light 2: B4 light 2
notes: κλ-body: common heavy chain, kappa anti-IL2Rγ light chain (AM2), lambda anti-HER2 light chain (N2-19); also called AM2N2-19/N
B14: AM10N2-19 (bispecific antibody, human IgG1, kappa, lambda, L234A L235A)
heavy: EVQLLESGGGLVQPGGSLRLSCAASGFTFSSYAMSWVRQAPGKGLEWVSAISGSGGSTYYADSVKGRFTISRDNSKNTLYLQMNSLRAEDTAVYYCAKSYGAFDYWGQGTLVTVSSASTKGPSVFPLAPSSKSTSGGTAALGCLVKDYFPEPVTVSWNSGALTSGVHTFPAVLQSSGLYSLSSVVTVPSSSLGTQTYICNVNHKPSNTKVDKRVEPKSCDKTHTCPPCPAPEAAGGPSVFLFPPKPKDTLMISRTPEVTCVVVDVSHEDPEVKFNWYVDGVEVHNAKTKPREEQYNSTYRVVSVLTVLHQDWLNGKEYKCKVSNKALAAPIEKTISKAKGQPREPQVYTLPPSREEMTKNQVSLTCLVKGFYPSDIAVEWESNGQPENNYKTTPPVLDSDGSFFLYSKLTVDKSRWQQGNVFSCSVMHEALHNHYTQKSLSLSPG
light 1: not shown
light 2: B4 light 2
notes: κλ-body: common heavy chain, kappa anti-IL2Rγ light chain (AM10), lambda anti-HER2 light chain (N2-19); also called AM10N2-19/N
B15: AM5O35 (bispecific antibody, human IgG1, kappa, lambda, L234A L235A)
heavy: not shown
light 1: not shown
light 2: B2 light 2
notes: κλ-body: common heavy chain, kappa anti-IL2Rγ light chain (AM5), lambda anti-MSLN light chain (O35); also called AM5O35/N
B16: AM5O41 (bispecific antibody, human IgG1, kappa, lambda, L234A L235A)
heavy: not shown
light 1: not shown
light 2: SYVLTQPPSVSVAPGKTARITCGGNKIGHRAVHWYQQKPGQAPVLVIYYTYERPSGIPERFSGSNSGNTATLTISRVEAGDEADYYCQVWDWYSEGGVVFGGGTKLTVLGQPKAAPSVTLFPPSSEELQANKATLVCLISDFYPGAVTVAWKADSSPVKAGVETTTPSKQSNNKYAASSYLSLTPEQWKSHRSYSCQVTHEGSTVEKTVAPTECS
notes: κλ-body: common heavy chain, kappa anti-IL2Rγ light chain (AM5), lambda anti-MSLN light chain (O41); also called AM5O41/N

What follows are binders tested against T1, human recombinant IL-2Rβ (assay: direct ELISA, biotinylated recombinant protein on streptavidin plates).

Binding result, binds:
B1
B2

The binders below were run against T2, human recombinant IL-2Rγ in the same assay as above.

Binding result, binds:
B3
B4
B5
B6
B7
B8
B9
B10
B11
B12
B13
B14
B15
B16

These binders were tested against T3, human recombinant HER2 (human, UniProt P04626 23-652) in the same assay as above.
T3 construct: Biotinylated and captured on streptavidin plates in the ELISA; also called human epidermal growth factor receptor 2

Binding result, binds:
B4
B5
B6
B7
B8
B9
B10
B11
B12
B13
B14
